The source of these data is publication PMC5473844, “Structural and Biochemical Characterization of Poly-ADP-ribose Polymerase from Trypanosoma brucei”.

One data set addresses T1, TBP-NW (Trypanosoma brucei, UniProt Q0PW89 1-197).
T1 sequence: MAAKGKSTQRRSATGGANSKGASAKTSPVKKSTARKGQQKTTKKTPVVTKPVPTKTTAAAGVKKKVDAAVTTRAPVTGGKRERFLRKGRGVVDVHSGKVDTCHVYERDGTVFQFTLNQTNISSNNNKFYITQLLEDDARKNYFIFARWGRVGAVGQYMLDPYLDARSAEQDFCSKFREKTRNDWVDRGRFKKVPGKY
The experiment in a line: EMSA; FP: 10 mM HEPES pH 8, 0.1 mM TCEP, 0.1 mM EDTA, 175 mM NaCl, 25 C, 5 nM DNA (250 nM for stoichiometry); EMSA: 50 mM Tris pH 7, 0.1 mM TCEP, 0.1 mM EDTA, 5% glycerol, 100 mM NaCl, room temperature, 0.5 uM DNA. To be noted: protein: recombinant; tags: 6xHis-thioredoxin tag removed with TEV; blunt. (In general: Mobility shift assays separate free from complexed probe on a gel.)

The target in a further data set is T2, TBP-N (Trypanosoma brucei, UniProt Q0PW89 1-100).
T2 sequence: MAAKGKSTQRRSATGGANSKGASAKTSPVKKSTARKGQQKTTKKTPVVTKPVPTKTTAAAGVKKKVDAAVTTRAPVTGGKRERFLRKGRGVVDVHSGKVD
The description is as above. The note with it: protein: recombinant; tags: 6xHis tag removed with TEV; blunt.

Data set [1] has as its target T3, TBP-FL (TbPARP full-length) (Trypanosoma brucei, UniProt Q0PW89 1-573).
T3 sequence: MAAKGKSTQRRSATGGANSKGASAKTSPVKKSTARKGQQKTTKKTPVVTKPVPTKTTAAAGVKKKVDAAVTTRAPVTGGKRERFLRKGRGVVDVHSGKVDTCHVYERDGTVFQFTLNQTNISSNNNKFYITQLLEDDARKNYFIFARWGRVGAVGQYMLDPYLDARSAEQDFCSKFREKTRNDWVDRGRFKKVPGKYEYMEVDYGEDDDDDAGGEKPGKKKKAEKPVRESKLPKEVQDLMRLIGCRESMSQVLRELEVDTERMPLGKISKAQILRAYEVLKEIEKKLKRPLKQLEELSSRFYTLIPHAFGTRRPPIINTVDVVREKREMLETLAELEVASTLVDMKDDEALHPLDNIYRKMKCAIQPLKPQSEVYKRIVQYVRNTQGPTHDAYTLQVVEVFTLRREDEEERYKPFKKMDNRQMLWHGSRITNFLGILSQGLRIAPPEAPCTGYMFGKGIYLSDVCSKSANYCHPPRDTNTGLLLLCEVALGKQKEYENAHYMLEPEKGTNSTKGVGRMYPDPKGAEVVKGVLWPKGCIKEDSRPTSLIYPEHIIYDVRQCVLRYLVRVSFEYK
The description is as above. The note with it: protein: recombinant; tags: 6xHis-thioredoxin tag removed with TEV; blunt.

In data set [2] the target is T3, TBP-FL (TbPARP full-length). In words: EMSA; higher protein needed for full supershift; FP: 10 mM HEPES pH 8, 0.1 mM TCEP, 0.1 mM EDTA, 175 mM NaCl, 25 C, 5 nM DNA (250 nM for stoichiometry); EMSA: 50 mM Tris pH 7, 0.1 mM TCEP, 0.1 mM EDTA, 5% glycerol, 100 mM NaCl, room temperature, 0.5 uM DNA. To be noted: protein: recombinant; tags: 6xHis-thioredoxin tag removed with TEV; 3' overhang 4 nt (TCGA) on strand 1, other end blunt.

Data set [3] has the same target. The experiment in a line: SEC-SAXS; 1:1 complex, non-activating DNA; FP: 10 mM HEPES pH 8, 0.1 mM TCEP, 0.1 mM EDTA, 175 mM NaCl, 25 C, 5 nM DNA (250 nM for stoichiometry); EMSA: 50 mM Tris pH 7, 0.1 mM TCEP, 0.1 mM EDTA, 5% glycerol, 100 mM NaCl, room temperature, 0.5 uM DNA. The note with it: protein: recombinant; tags: 6xHis-thioredoxin tag removed with TEV; hairpin, 28 bp stem, TTTT loop, 3' overhang 4 nt.

The target is the same in data set [4]. In words: SEC-SAXS; 2:1 protein:DNA complex, activating DNA; FP: 10 mM HEPES pH 8, 0.1 mM TCEP, 0.1 mM EDTA, 175 mM NaCl, 25 C, 5 nM DNA (250 nM for stoichiometry); EMSA: 50 mM Tris pH 7, 0.1 mM TCEP, 0.1 mM EDTA, 5% glycerol, 100 mM NaCl, room temperature, 0.5 uM DNA. To be noted: protein: recombinant; tags: 6xHis-thioredoxin tag removed with TEV; hairpin, 28 bp stem, TTTT loop, 3' overhang 4 nt. On the technique in general: In gel filtration, larger molecules generally elute earlier.

The target is the same in data set [5]. The experiment in a line: fluorescence polarization (stoichiometry); 50 mM NaCl; non-specific, no clear inflection; FP: 10 mM HEPES pH 8, 0.1 mM TCEP, 0.1 mM EDTA, 175 mM NaCl, 25 C, 5 nM DNA (250 nM for stoichiometry); EMSA: 50 mM Tris pH 7, 0.1 mM TCEP, 0.1 mM EDTA, 5% glycerol, 100 mM NaCl, room temperature, 0.5 uM DNA. The note with it: protein: recombinant; tags: 6xHis-thioredoxin tag removed with TEV; label: 5' FAM on strand 1; blunt.

The target is the same in data set [6]. In words: fluorescence polarization; low nanomolar affinity (value only in figure); 1:1; FP: 10 mM HEPES pH 8, 0.1 mM TCEP, 0.1 mM EDTA, 175 mM NaCl, 25 C, 5 nM DNA (250 nM for stoichiometry); EMSA: 50 mM Tris pH 7, 0.1 mM TCEP, 0.1 mM EDTA, 5% glycerol, 100 mM NaCl, room temperature, 0.5 uM DNA. The note with it: protein: recombinant; tags: 6xHis-thioredoxin tag removed with TEV; label: 5' FAM; single strand. On the technique in general: Fluorescence polarisation rises when a labelled molecule tumbles more slowly, as on binding a larger partner.

B1: template 1 (dsDNA)
DNA 1: CCAGGACCAGGGCGCAGATCACCTTGTTCTCCA
DNA 2: TGGAGAACAAGGTGATCTGCGCCCTGGTCCTGG
For the molecule B1, the binding result (with TBP-NW; with TBP-N; in data set [1]) was “binds” each time.

B2: template 6 (dsDNA)
DNA 1: CGCGCTAAGGCTCATGCTACACTAGAGCTCGA
DNA 2: GCTCTAGTGTAGCATGAGCCTTAGCGCG
modifications: 5' phosphate on strand 2
As to B2, the binding result in data set [2] is “binds”.

B3: template 14 (structured_DNA)
DNA: GCTCTAGTGTAGCATGAGCCTTAGCGCGTTTTCGCGCTAAGGCTCATGCTACACTAGAGCTCGA
As for B3, in data set [3], the binding result is recorded as “binds”.

B4: template 15 (structured_DNA)
DNA: GCTCTAGTGTAGCATGAGCCTTAGCGCGTTTTCGCGCTAAGGCTCATGCTACACTAGAGCTCGA
modifications: 5' phosphate
With B4, the binding result in data set [4] is listed as “binds”.

B5: template 20 (dsDNA)
DNA 1: CAGCAGGTACCTGCCCGGCGCCCAGAGAGGAATGCAACACTC
DNA 2: GAGTGTTGCATTCCTCTCTGGGCGCCGGGCAGGTACCTGCTG
As for B5, the binding result in data set [5] is “binds”. As to CAGCAGGTACCTGCCCGGCGCCCAGAGAGGAATGCAACACTC (ssDNA) [template 21], in data set [6], the binding result is recorded as “binds”.
